This note sets out measurements from PMC10256740.

Test [1] has as its target FLAG-tagged BicD2-Kif1c tail fusion (mouse) (UniProt O35071). Kind of test: centrosome recruitment assay with BicD2-kinesin tail fusions (relocalisation in cells, microscopy); N2A cells transfected with FLAG-BicD2-KIF tail fusion and EGFP-tagged RBP (2:3), fixed after 24 h, anti-FLAG staining; read-out log2 of the mean EGFP intensity at the centrosome over the mean intensity in the whole cell.

Test [2] has as its target FLAG-tagged BicD2-Kif1bα tail fusion (mouse) (UniProt Q60575). Described as above.

Chain of FLAG-tagged BicD2-Kif1bα tail fusion (mouse) (Q60575 other isoform, or with tags, fused parts or gaps): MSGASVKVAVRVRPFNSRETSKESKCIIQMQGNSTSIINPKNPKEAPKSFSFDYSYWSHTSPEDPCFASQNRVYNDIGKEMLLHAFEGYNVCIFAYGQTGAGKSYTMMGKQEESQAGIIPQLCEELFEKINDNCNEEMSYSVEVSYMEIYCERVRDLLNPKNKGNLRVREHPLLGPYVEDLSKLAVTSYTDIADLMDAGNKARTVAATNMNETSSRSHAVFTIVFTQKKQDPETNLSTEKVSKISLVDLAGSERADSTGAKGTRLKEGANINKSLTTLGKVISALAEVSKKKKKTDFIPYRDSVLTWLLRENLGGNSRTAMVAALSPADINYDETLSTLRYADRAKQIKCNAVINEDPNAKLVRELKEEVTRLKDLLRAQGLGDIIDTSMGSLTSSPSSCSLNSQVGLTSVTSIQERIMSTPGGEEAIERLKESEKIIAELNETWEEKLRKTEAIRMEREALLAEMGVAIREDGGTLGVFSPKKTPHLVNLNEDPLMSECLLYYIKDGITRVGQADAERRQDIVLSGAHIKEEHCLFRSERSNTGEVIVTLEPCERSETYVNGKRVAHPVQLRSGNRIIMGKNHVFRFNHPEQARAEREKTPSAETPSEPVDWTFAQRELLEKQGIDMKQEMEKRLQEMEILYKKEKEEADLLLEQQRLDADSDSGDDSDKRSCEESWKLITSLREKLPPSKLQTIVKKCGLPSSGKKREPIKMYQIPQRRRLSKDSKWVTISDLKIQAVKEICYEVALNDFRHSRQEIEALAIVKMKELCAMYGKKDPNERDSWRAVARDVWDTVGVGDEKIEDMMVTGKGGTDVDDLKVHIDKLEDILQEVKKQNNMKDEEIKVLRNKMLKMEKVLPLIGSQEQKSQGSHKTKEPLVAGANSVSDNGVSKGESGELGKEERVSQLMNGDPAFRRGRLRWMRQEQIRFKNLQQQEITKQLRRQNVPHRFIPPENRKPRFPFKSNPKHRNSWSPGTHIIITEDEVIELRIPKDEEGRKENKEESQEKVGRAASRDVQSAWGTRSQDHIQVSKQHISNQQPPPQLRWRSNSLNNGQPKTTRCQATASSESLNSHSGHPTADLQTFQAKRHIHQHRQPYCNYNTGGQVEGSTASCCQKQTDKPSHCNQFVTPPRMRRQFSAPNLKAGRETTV
Chain of FLAG-tagged BicD2-Kif1c tail fusion (mouse) (O35071 whole entry, the tested form may be a part): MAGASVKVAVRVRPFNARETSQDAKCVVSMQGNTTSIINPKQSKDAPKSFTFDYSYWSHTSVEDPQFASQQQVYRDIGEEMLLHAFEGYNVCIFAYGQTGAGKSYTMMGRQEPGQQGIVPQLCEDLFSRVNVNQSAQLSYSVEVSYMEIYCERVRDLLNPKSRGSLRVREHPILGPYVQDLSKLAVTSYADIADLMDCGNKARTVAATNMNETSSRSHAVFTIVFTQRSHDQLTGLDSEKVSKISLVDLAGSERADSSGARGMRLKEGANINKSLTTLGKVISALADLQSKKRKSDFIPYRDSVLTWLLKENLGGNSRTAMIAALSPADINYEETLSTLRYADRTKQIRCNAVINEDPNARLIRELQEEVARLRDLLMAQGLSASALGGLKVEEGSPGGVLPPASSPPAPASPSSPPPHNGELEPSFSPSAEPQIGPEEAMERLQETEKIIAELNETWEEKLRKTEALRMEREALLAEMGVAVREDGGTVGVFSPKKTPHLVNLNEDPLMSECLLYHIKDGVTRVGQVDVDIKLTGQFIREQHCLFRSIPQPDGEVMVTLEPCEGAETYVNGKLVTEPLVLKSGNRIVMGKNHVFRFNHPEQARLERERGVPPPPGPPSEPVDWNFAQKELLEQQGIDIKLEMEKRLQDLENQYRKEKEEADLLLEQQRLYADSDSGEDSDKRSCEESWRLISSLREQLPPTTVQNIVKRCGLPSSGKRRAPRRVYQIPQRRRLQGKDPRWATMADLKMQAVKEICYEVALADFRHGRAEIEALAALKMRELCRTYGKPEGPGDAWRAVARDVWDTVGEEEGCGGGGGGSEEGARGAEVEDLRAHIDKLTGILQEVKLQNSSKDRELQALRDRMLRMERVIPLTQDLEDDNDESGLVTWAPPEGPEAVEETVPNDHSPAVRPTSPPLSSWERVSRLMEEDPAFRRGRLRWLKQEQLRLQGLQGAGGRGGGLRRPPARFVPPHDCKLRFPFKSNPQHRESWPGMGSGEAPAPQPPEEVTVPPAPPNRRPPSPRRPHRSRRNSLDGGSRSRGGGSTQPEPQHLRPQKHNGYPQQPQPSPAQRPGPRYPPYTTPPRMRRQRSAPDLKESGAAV

B1: EGFP-Tis11d (natural protein)
chain: MSTTLLSPFYDIDFLCKTEKSLANLNLNNMLDKKAVGTPVAAAPSSSFTPGFLRRHSASNLHALAHPVPSPGSCSPKFPGAPNGGGSSCGPAGGGGLASYGQLKEPSGGSGTALVTKESKFRDRSFSENGERSQHLLHLQQQQKGGSGSQINSTRYKTELCRPFEESGTCKYGEKCQFAHGFHELRSLTRHPKYKTELCRTFHTIGFCPYGPRCHFIHNADERRPAPSGGGGASGDLRAFGARDALHLGFAREPRPKLHHSLSFSGFPSGHHQPPGGLESPLLLDSPTSRTPPPPSSSASSCSSSASSCSSASAASTPSGAPTCCATAAAAALLYGPGGAEDLLSPGAPCASCSSSGANNAFAFGPELSSLITPLAIQTHNFAAAAAAAYYRNQQQGLTGPAPPPAQPPAAPAPPSPPFGFQLPRRLSESPVFDAPPSPPDSLSDRDSYLSGSLSSGSLSGSESPSLDPGRRLPIFSRLSISDD
Regarding B1, the log2 mean centrosome recruitment in test [1] is 1.13 log2; in test [2], 1.24 log2.
